Test results as given in patent US20030022247A1, “Substance which inhibits binding of information transfer molecule for 1175-tyrosine phosphorylated KDR/FLK-1 and usages of the same” (priority 2000, published 2003).
Square brackets hold non-standard residues; d marks the D form. Ends that are not written are not given here. pY = N[C@@H](Cc1ccc(OP(=O)(O)O)cc1)C(=O)O

Legend:
[1] = system: various cancer cells transplanted into mice; conditions: cited from earlier work
[2] = target: T1, binding of the auto-phosphorylated KDR/Flk-1 and PLC-γ (Homo sapiens, UniProt P19174+P35968); assay: In vitro binding of GST-PLC-γ C-SH2 to KDR/Flk-1 from NIH3T3-KDR cell extract; format: biochemical; conditions: coexisting with GST-PLC-γ C-SH2 beads and extract of VEGF-stimulated NIH3T3-KDR
T1 construct: a fusion protein of GST and SH2 domain of the C-terminal side of PLC-γ (GST-PLC-γ C-SH2); host or cells: NIH3T3-KDR cell extract (KDR/Flk-1)
Experimental: Onto glutathione-Sepharose 4B beads (manufactured by Amersham Pharmacia Biotech), 1.5 μg of GST, a fusion protein of GST and SH2 domain (2 domains) of PLC-γ (GST-PLC-γ SH2-SH2), a fusion protein of GST and SH2 domain of the N-terminal side of PLC-γ (GST-PLC-γ N-SH2) and a fusion protein of GST and SH2 domain of the C-terminal side of PLC-γ (GST-PLC-γ C-SH2) (all manufactured by Santa Cruz Biotechnology Inc.) was immobilized respectively, and the cell extracts were added thereto, followed by incubation at 4° C. for 2 hours. The beads were washed three times with a cooled cell extraction buffer and heated in an SDS sample buffer to dissolve the protein bound to the beads, and then SDS-PAGE was carried out. The KDR/Flk-1 bound to each of the added proteins was detected by immunoblotting using the anti-KDR/Flk-1 antibody. The KDR/Flk-1 was detected in the VEGF-stimulated cell with GST-PLC-γ SH2-SH2 and GST-PLC-γ C-SH2, but KDR/Flk-1 was not detected with GST-PLC-γ N-SH2.
The same test of (2) was carried out by allowing the anti-PY1175 antibody and the PY1175 peptide to coexist at the time of the reaction of GST-PLC-γ C-SH2-immobilized beads with the cell extract. As a result, KDR/Flk-1 was not detected even in the VEGF-stimulated cell, and binding of the auto-phosphorylated KDR/Flk-1 and PLC-γ was inhibited by the anti-PY1175 antibody and the PY1175 peptide.

[3] = target: T2, 1175-tyrosine phosphorylated KDR/Flk-1 (Homo sapiens, UniProt P35968); assay: Tissue immunostaining of human umbilical cord vein endothelial cells; format: cell-based; conditions: 1 μg/ml peptide; cells 5 minutes after the VEGF stimulation
T2 construct: expressing endogenous KDR/Flk-1; host or cells: human umbilical cord vein endothelial cells (HUVEC)
Experimental: After blocking the fixed cells for 30 minutes with PBS containing 1% goat serum, tissue immunostaining was carried out using the anti-PY1175 antibody. The detection was carried out by fluorescence microscopic observation 30 minutes after treatment with an FITC-labeled anti-rabbit IgG antibody (manufactured by Cappel) diluted to 1/100. […] Accordingly, the anti-PY1175 antibody was useful for the detection of the 1175-tyrosine phosphorylation of KDR/Flk-1 by not only immunoblotting but also tissue immunostaining.

[4] = target: Flt-1 (Homo sapiens, UniProt P17948); conditions: VEGF binding to Flt-1; cited from earlier work
[5] = target: T3, mutated KDR/Flk-1 Y1175F (1175-tyrosine replaced by phenylalanine) (human, UniProt P35968 20-1356); assay: immunoprecipitation with anti-KDR/Flk-1 antibody, immunoblotting with anti-PLC-γ antibody
T3 construct: Expressed in MSS31 cells by an adenovirus vector, VEGF-stimulated; cell extract; Phosphorylation at other tyrosines not specified

Molecule: Cc1cc(C)c(/C=C2\C(=O)Nc3ccccc32)[nH]1 [SU5416]
- angiogenesis, growth or metastasis of cancer cells [1]: inhibits angiogenesis, growth or metastasis

Molecule: PY1175 peptide: SEQ ID NO:1: cysteine added to N-terminus of positions 1171 to 1180 of human KDR/Flk-1, tyrosine 1175 phosphorylated (CDGKD[pY]IVLPI)
- inhibition of binding of auto-phosphorylated KDR/Flk-1 and PLC-γ (GST-PLC-γ C-SH2) [2]: inhibited
- inhibition of anti-PY1175 antibody staining by coexisting peptide [3]: staining was inhibited

Molecule: Y1175 peptide: SEQ ID NO:2: the same amino acid sequence of the PY1175, but the tyrosine is not phosphorylated (CDGKDYIVLPI; a peptide SEQ ID NO1 without phosphorylation) [reference compound]
- inhibition of binding of auto-phosphorylated KDR/Flk-1 and PLC-γ (GST-PLC-γ C-SH2) [2]: inhibition was not found

Molecule: vascular endothelial growth factor [VEGF]
- Kd [4]: 0.02 nM

B1: phospholipase C-γ (PLC-γ) (enzyme, mouse, UniProt Q62077 2-1302, looked up)
chain: AGVATPCANGCGPGAPSEAEVLHLCRSLEVGTVMTLFYSKKSQRPERKTFQVKLETRQITWSRGADKIEGSIDIREIKEIRPGKTSRDFDRYQEDPAFRPDQSHCFVILYGMEFRLKTLSLQATSEDEVNMWIKGLTWLMEDTLQAATPLQIERWLRKQFYSVDRNREDRISAKDLKNMLSQVNYRVPNMRFLRERLTDLEQRSGDITYGQFAQLYRSLMYSAQKTMDLPFLETNALRTGERPEHCQVSLSEFQQFLLEYQGELWAVDRLQVQEFMLSFLRDPLREIEEPYFFLDELVTFLFSKENSVWNSQLDAVCPDTMNNPLSHYWISSSHNTYLTGDQFSSESSLEAYARCLRMGCRCIELDCWDGPDGMPVIYHGHTLTTKIKFSDVLHTIKEHAFVASEYPVILSIEDHCSIAQQRNMAQHFRKVLGDTLLTKPVDIAADGLPSPNQLRRKILIKHKKLAEGSAYEEVPTSVMYSENDISNSIKNGILYLEDPVNHEWYPHYFVLTSSKIYYSEETSSDQGNEDEEEPKEASSSTELHSSEKWFHGKLGAGRDGRHIAERLLTEYCIETGAPDGSFLVRESETFVGDYTLSFWRNGKVQHCRIHSRQDAGTPKFFLTDNLVFDSLYDLITHYQQVPLRCNEFEMRLSEPVPQTNAHESKEWYHASLTRAQAEHMLMRVPRDGAFLVRKRNEPNSYAISFRAEGKIKHCRVQQEGQTVMLGNSEFDSLVDLISYYEKHPLYRKMKLRYPINEEALEKIGTAEPDYGALYEGRNPGFYVEANPMPTFKCAVKALFDYKAQREDELTFTKSAIIQNVEKQDGGWWRGDYGGKKQLWFPSNYVEEMINPAVLEPEREHLDENSPLGDLLRGVLDVPACQIAIRPEGKNNRLFVFSISMPSVAQWSLDVAADSQEELQDWVKKIREVAQTADARLTEGKMMERRKKIALELSELVVYCRPVPFDEEKIGTERACYRDMSSFPETKAEKYVNKAKGKKFLQYNRLQLSRIYPKGQRLDSSNYDPLPMWICGSQLVALNFQTPDKPMQMNQALFMAGGHCGYVLQPSTMRDEAFDPFDKSSLRGLEPCVICIEVLGARHLPKNGRGIVCPFVEIEVAGAEYDSTKQKTEFVVDNGLNPVWPAKPFHFQISNPEFAFLRFVVYEEDMFSDQNFLAQATFPVKGLKTGYRAVPLKNNYSEDLELASLLIKIDIFPAKENGDLSPFSGISLRERASDASSQLFHVRAREGSFEARYQQPFEDFRISQEHLADHFDSRERSTSDGPSSATNLIEDPLHDKLWKCSL
notes: whole, on cells; Endogenous intracellular PLC-γ co-precipitated with KDR/Flk-1 from MSS31 cell extracts
- binding result [5]: no binding
